T1: Brn2 DNA-binding domain (BD-Brn2) (Mus musculus (B6), UniProt P31360 336-435)
T1 sequence: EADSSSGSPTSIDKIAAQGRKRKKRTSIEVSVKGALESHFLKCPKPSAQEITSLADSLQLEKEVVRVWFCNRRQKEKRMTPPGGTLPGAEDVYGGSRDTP

T2: Oct6 DNA-binding domain (BD-Oct6) (Mus musculus (B6), UniProt P21952 317-416)
T2 sequence: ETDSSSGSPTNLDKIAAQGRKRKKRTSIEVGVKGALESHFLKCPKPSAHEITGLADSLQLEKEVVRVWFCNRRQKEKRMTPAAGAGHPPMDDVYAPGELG

B1: 19 (dsDNA)
DNA 1: GGGGGGAAGGAAAATTGTTCCCTGACATTTTTGAACTGGGCCCCC
DNA 2: GGGGGCCCAGTTCAAAAATGTCAGGGAACAATTTTCCTTCCCCCC
B2: 27 (dsDNA)
DNA 1: GGGGGCACACCTGTTTGTTTTCCACTTCACAGAGGAGGCATAGGAAACTCCCCC
DNA 2: GGGGGAGTTTCCTATGCCTCCTCTGTGAAGTGGAAAACAAACAGGTGTGCCCCC
B3: 42 (dsDNA)
DNA 1: GGGGGGCTTCAGCATTGTGAAATTGAATCATTGCCCCCC
DNA 2: GGGGGGCAATGATTCAATTTCACAATGCTGAAGCCCCCC
B4: 37 (dsDNA)
DNA 1: GGGGGTTTCATGGTTTGTTAGCTATTCTCTTATCACCCCCC
DNA 2: GGGGGGTGATAAGAGAATAGCTAACAAACCATGAAACCCCC
B5: 32 (dsDNA)
DNA 1: GGGGGCGTTGCACACAAACCTTAATTTTCCAATCTATTCCCCC
DNA 2: GGGGGAATAGATTGGAAAATTAAGGTTTGTGTGCAACGCCCCC
B6: 36 (dsDNA)
DNA 1: GGGGGTGCATACATTTGTAATTCATTTAGGTGGTTTTCCCCC
DNA 2: GGGGGAAAACCACCTAAATGAATTACAAATGTATGCACCCCC
B7: 41 (dsDNA)
DNA 1: GGGGGTTTGGAAAACAAAACATTAACCAAAATTTTCCCCC
DNA 2: GGGGGAAAATTTTGGTTAATGTTTTGTTTTCCAAACCCCC
B8: 24 (dsDNA)
DNA 1: GGGGGCTTGTATCTTTGTATGTTCACAGAAAGCAAAGTAGCGTGGCCCCC
DNA 2: GGGGGCCACGCTACTTTGCTTTCTGTGAACATACAAAGATACAAGCCCCC
B9: 38 (dsDNA)
DNA 1: GGGGGAGGTTTTGATGATTATGAACAAAGCTTCTGTCCCCC
DNA 2: GGGGGACAGAAGCTTTGTTCATAATCATCAAAACCTCCCCC
B10: 29 (dsDNA)
DNA 1: GGGGGAAAAACTTTTTGTTATTTCATTTTTATTAGTGGCCCCC
DNA 2: GGGGGCCACTAATAAAAATGAAATAACAAAAAGTTTTTCCCCC
B11: 22 (dsDNA)
DNA 1: GGGGGTACATACAGCAAAATAATCTTTGTAGGGGGGACCCCC
DNA 2: GGGGGTCCCCCCTACAAAGATTATTTTGCTGTATGTACCCCC
B12: 39 (dsDNA)
DNA 1: GGGGGTTCAGGTTTTTGTAGGAACTTAAATTTTATGATTAGCCCCC
DNA 2: GGGGGCTAATCATAAAATTTAAGTTCCTACAAAAACCTGAACCCCC
B13: 34 (dsDNA)
DNA 1: GGGGGTTGTTCCCTTTGACTTCTTGTGACTTTAACAAATTCTAAAGCCCCC
DNA 2: GGGGGCTTTAGAATTTGTTAAAGTCACAAGAAGTCAAAGGGAACAACCCCC
B14: 20 (dsDNA)
DNA 1: GGGGGCTCAGAGCTAGAAATATTTGTGGAATGGGCCCCC
DNA 2: GGGGGCCCATTCCACAAATATTTCTAGCTCTGAGCCCCC
B15: 26 (dsDNA)
DNA 1: GGGGGGTGGAGGCTTTGTGTAATCAGTCTGTGTACCCCC
DNA 2: GGGGGTACACAGACTGATTACACAAAGCCTCCACCCCCC
B16: 25 (dsDNA)
DNA 1: GGGGGCAGATAACTTTGTCCTTTTTGATTTTGAGTGAAGACCCCC
DNA 2: GGGGGTCTTCACTCAAAATCAAAAAGGACAAAGTTATCTGCCCCC
B17: 21 (dsDNA)
DNA 1: GGGGGCAGAATCATTTGTGTTTTCCCATTTTTGCCAGGGGCCCCC
DNA 2: GGGGGCCCCTGGCAAAAATGGGAAAACACAAATGATTCTGCCCCC
B18: 28 (dsDNA)
DNA 1: GGGGGAAAAAAGATTCTAATCTTTTTTGTGGTGGTGGCCCCC
DNA 2: GGGGGCCACCACCACAAAAAAGATTAGAATCTTTTTTCCCCC
B19: 31 (dsDNA)
DNA 1: GGGGGTCCTCTCCTTTGTTTTGTCCTCACACCCCCAGCTGACCAGGTGCCCCC
DNA 2: GGGGGCACCTGGTCAGCTGGGGGTGTGAGGACAAAACAAAGGAGAGGACCCCC
B20: 33 (dsDNA)
DNA 1: GGGGGATAGTACATTTGTTGTCATTAACAAATCAGTCCCCC
DNA 2: GGGGGACTGATTTGTTAATGACAACAAATGTACTATCCCCC
B21: 23 (dsDNA)
DNA 1: GGGGGAATCTCTATCTTACTTCTTGTAAGTGTGGACAAATGCAGGTTCCCCC
DNA 2: GGGGGAACCTGCATTTGTCCACACTTACAAGAAGTAAGATAGAGATTCCCCC
B22: 40 (dsDNA)
DNA 1: GGGGGTTTGTCATTTTGTAGTGCTAGGAATTAAACCCATGTCCCCC
DNA 2: GGGGGACATGGGTTTAATTCCTAGCACTACAAAATGACAAACCCCC
B23: 35 (dsDNA)
DNA 1: GGGGGGTTTCTCTAATTAATAGACTTCATTGTTCAAAACTATTTTACATTTGTTCCCCC
DNA 2: GGGGGAACAAATGTAAAATAGTTTTGAACAATGAAGTCTATTAATTAGAGAAACCCCCC
B24: 18 (dsDNA)
DNA 1: GGGGGCTTAGAATTAGTAATTTCTTGATATTGTCTGTTAAGCCCCC
DNA 2: GGGGGCTTAACAGACAATATCAAGAAATTACTAATTCTAAGCCCCC
B25: 30 (dsDNA)
DNA 1: GGGGGTGTCTTCTCCCTAATGATTGTTGTATGACCCCCC
DNA 2: GGGGGGTCATACAACAATCATTAGGGAGAAGACACCCCC

How the values were obtained:
Assay in all cases: EMSA; 10% glycerol, 20 mM HEPES pH 7.8, 45 mM KCl, 10 mM NaCl, 1 mM EDTA, 1 mM DTT, 0.2 ug/uL BSA, 0.1% NP-40, 50 ng poly-dIdC; 20 ng each GST protein; room temperature 30 min (heterodimers 4 C); 6% PAGE 0.25x TBE
Settings in all cases: protein: recombinant; tags: GST (N-terminal, pGEX-6P-1); label: 32P-dCTP fill-in of the 5' (dG)5 overhangs of both strands (Methods; control probes are given with GGG)
[1] = molecular target: Pax6 DNA-binding domain (BD-Pax6) (Mus musculus (B6), UniProt P63015 190-289)
How it was run: (§1)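 Candidate cis-element oligonucleotides were annealed, labelled with 32P-dCTP and tested against GST-tagged transcription factor DNA-binding domains made in E. coli BL21 and purified on glutathione-sepharose. For each binding reaction, 20 ng protein was combined with 40,000–50,000 cpm probe and 50 ng poly-dIdC in HEPES/KCl glycerol buffer containing BSA and detergent for 30 min at room temperature. Gels of 6% polyacrylamide in 0.25×TBE were run at 4°C, and band radioactivity was measured on a BAS4000 imager. The readout for DNA binding was the band signal in the expected shift region.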

[2] = molecular target: T1, Brn2 DNA-binding domain (BD-Brn2)
How it was run: as §1

[3] = molecular target: T2, Oct6 DNA-binding domain (BD-Oct6)
How it was run: as §1

Chain of Pax6 DNA-binding domain (BD-Pax6) (P63015 190-289): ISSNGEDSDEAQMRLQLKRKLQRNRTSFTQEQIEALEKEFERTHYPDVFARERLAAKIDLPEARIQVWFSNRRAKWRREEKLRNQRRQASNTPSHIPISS

Binder	binding result [1]	binding result [2]	binding result [3]
B1	no binding	no binding	no binding
B2	no binding	no binding	no binding
B3	binds	no binding	no binding
B4	no binding	no binding	no binding
B5	binds	binds	binds
B6	binds	binds	binds
B7	binds	no binding	binds
B8	no binding	no binding	no binding
B9	no binding	no binding	binds
B10	no binding	no binding	binds
B11	no binding	no binding	no binding
B12	binds	binds	binds
B13	binds	no binding	no binding
B14	no binding	no binding	no binding
B15	no binding	binds	binds
B16	no binding	no binding	no binding
B17	no binding	no binding	no binding
B18	no binding	no binding	no binding
B19	no binding	no binding	no binding
B20	binds	binds	binds
B21	no binding	no binding	no binding
B22	binds	binds	binds
B23	binds	binds	binds
B24	binds	no binding	binds
B25	no binding	binds	binds

Source: PMC3713010, “Sox2 Transcriptionally Regulates Pqbp1, an Intellectual Disability-Microcephaly Causative Gene, in Neural Stem Progenitor Cells”
